Measured values reported in article PMC11307329.

What follows are sequences tested on T1, XisF4 (native excisionase) (Pseudomonas aeruginosa PAO1), ORF:74e9b1d3 (assay: EMSA).
T1 sequence: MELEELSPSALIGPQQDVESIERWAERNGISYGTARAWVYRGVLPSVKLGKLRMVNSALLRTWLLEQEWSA

Sequence | binding
GCTCATTCCGTCACTATTCGTGGCATTAGCCATACGCAGCTAGAGAAATAATTACCCTGGAGAAATTATTTCCCCAAAGCCACGTCAGGGCAACTATTTCCCCGGAATAAATTTCTATATGAGCACGTCAGCCGATAGAGCAAGACTATTAATCAAGAAAATCGGCCCCAAAAAGGTCAGCCTTCACGGGGGCGATTACGAGAGATGGAAAAGCGTCAGCAAAGGCGCGATTCGCGTGAGCACGGAAGAAATCGACGTCCTAGTAAAAATTTTCCCTAATTACGCATTATGGATTGCAAG (double strand) [xisF4 promoter] | binds
AGCTTTCATGAATCTCTCCGTTGATTATGTATAGGCCTAACGCCTGAACCTCAACAAGCACTTACCATGCCAAATATCAAACCGCGCCACGATCAAGGAAACTGGGTTCCTTTCTCGATGAGAGTCAAACTTAAAACGGACAGGATGTGACATTTTTTGACAGCTGGATTTCCTCGATTTGGCAGCCCCTGTTATCTGCGTTATAAGGCACCTCAATAGCCCTTCTGCGATTCCTTCCCCATG (double strand) [pilA promoter] | binds
CGCGCAGACTGTATCGAAGTATTTCCGACGCCTGGCGTTCTGTGATCGATTCGGCTCGGTTGGAGTGCGCTGCCGCACGCTTTACAGCCGGACGGAGCGGGGCACCGGATCTACTGCAAAAGCTGATAGTTGTCTTCCCGGGTGACGGCGTTGCACGGTCCTGCGGCGTGCAACCCGGCCTGGGCGAAATACCGGCGGAGCGGACCAGGCTATCCCGTCGGAGGCGATGTCGCCGGGCTGCTGGCTTTCAAGGTTTCCCTTCGATGACCAGGAGCTACCCATG (double strand) [lasA promoter] | binds
CGGTCGCCTTGTTCATGAGAAAAGCCTTTTAAAACAGTGAGTTGCGCAATAATTTCAGCCGTACCTCTTTCGAGGTAGGGGCGCGCATCTAGGCACGGAACGGCCGGTATTTCATTGATTCCTATCAAATTTGCATAGGAACACCTTCCCTAGGCTCTCGCTGAACGCTGTCCGTGCAGAGAGTTTAGCC (double strand) [narL promoter] | binds
